Data published in patent publication US20250313612A1 (Adimab, published 2025).
Numbering of substitutions follows the chain as printed.

What was measured:
[1] = target: RSV F protein of recombinant mKate-RSV, subtype A (strain A2) (Respiratory syncytial virus subtype A …, UniProt P03420 26-574); assay: cell-based or functional assay
[2] = target: RSV F protein of recombinant mKate-RSV, subtype B (18537) (Respiratory syncytial virus subtype B …, UniProt P13843 26-574); assay: cell-based or functional assay

B1: ADI-14442 (antibody, V domains shown)
VH: QVQLVQSGSEVKKPGASVKVSCKASGYRFSNYGISWVRQAPGQGLEWMGWISAYNGNIKYGNNLQGRVTVTTDTSTATAYMEVRSLTSDDTAVYYCARDVPADGVHFMDVWGQGTLVTVSS
VL: EIVMTQSPLSLPVTLGQPASISCRSSQSLVHSDTNTYLNWFQQRPGQSPRRLIYKVSNRDSGVPDRFSGSGSGTTFTLKISRVEAEDVGIYYCMQGSHWAPTFGQGTKVEIK
[1]
  Neut IC50 subtype A: 0.002 µg/mL
[2]
  Neut IC50 subtype B: 0.015 µg/mL

B2: ADI-14489 (antibody, V domains shown)
VH: B1 VH with A77T, Q113K, L116T
VL: B1 VL with E1D, S7T
[1]
  Neut IC50 subtype A: 0.023 µg/mL
[2]
  Neut IC50 subtype B: 0.021 µg/mL

B3: ADI-14493 (antibody, V domains shown)
VH: QVQLQQWGTGLVKPSETLSLTCAVSGGAFSGHQWNWFRQPPGKGLEWIGEINVSGNTHYNVSLRSRVTISLDESKKQFSLKMTSVTAADTAIYYCAKASSGSYHFEYWFDPWSQGTMVTVSS
VL: SYELTQPPSVSVAPGKMAWFTCGGSDIGSKRVHWYQQKPGQAPVLLVYDDSLRPSGTSARVSGSTSGNTATLSIISVEAGDEADYFCQVWDDADDHAVFGGGTKLTVL
[1]
  Neut IC50 subtype A: 0.009 µg/mL
[2]
  Neut IC50 subtype B: 1.27 µg/mL

B4: ADI-14496 (antibody, V domains shown)
VH: QVQLVQSGAEVKKPGESLKISCQGSGYSFRSYWIGWVRQKPGKGLEYMGIIFPNDFDTRYSPSFQGQVTISVDKSTSTAFLQWTSLQASDTAIYYCGRQELQGSFTIWGQGTMVTVTS
VL: DIVMTQSPSSLSASVGDRVTITCQASQDMGNSLNWYQQKSGKAPKLLIYDASYLDSGVPSRFSGSGSGTHFTFTISTLQPEDIATYYCQHYDNLLLFTFGPGTKLEIK
[1]
  Neut IC50 subtype A: 0.006 µg/mL
[2]
  Neut IC50 subtype B: > 10 µg/mL

B5: ADI-14501 (antibody, V domains shown)
VH: QVQLVQSGAEVKKPGSSVKISCKASGGTFKSQAIHWVRQAPGQGLEWMGNIIPTYGSPNFAQRFLGRVTFIADDSTGAASMDLYRLTSEDTAVYYCATAGWFGELVRFDSWGQGTLVTVSS
VL: DIVMTQSPATLSVSPGERATLSCRATESISSNLAWYQQKPGQAPRLLIYGASTRATGIPARFSGSGSGTEFTLTINSLQSEDFAVYYCQQYNNWPPLTFGGGTKVDIK
[1]
  Neut IC50 subtype A: 12.3 µg/mL
[2]
  Neut IC50 subtype B: 2.29 µg/mL

B6: ADI-14502 (antibody, V domains shown)
VH: QVQLVQSGAEVKKPGSSVKVSCKASGDTFSMYAISWVRQAPGQGLEWMGGVLPMLGTSNYAQQFRGRVTITADGSTSTAYMEMSNLRFEDTAVYYCARVAGLGNSYGRYFDVWGQGTLVTVSS
VL: DIRMTQSPSSVSASIGDRVTITCRASQDISTSLAWYQQRPGKAPNLLIYAASTLHSGVPSRFRGSESGPDFTLTISSLQPEDVGTYYCQQAKSFPYTFGQGTKLEIK
[1]
  Neut IC50 subtype A: > 10 µg/mL
[2]
  Neut IC50 subtype B: 2.72 µg/mL

B7: ADI-14505 (antibody, V domains shown)
VH: QVQLVQSGAEVKKPGASVKVSCKASGNSFNDFYMHWVRQAPGQGLEWMGWIDPNNGGANYAQKFHGRVTMTRDSSINTAYMELSRLRSDDTAVYYCASEPPGVGFGLIPHYYFDNWGQGTLVTVSS
VL: EIVMTQSPDSLAVSLGERATINCKSSQNVLDTSNNKNYLAWYQQKPGQPPRLLIYWASARGSGVPDRFSGSGSGTHFTLTISSLQAEDVAVYYCQQYFSIPPTFGQGTKVEIK
[1]
  Neut IC50 subtype A: 0.065 µg/mL
[2]
  Neut IC50 subtype B: 0.018 µg/mL

B8: ADI-14444 (antibody, V domains shown)
VH: QVQLVQSGPDVKRPGASVRVSCKASGYTFSDYYMHWVRQAPGQGLEWLAWVNPSTGATHYSESFRGSMVVQRDTSTDTAYLELSSLKSDDTAVYYCARIGSNEIWGQGTMVTVSS
VL: QSALTQPASVSGSPGQSITISCAGTSSDIGGWNYVSWYQQYPGQVPKLILYEVTDRPSGVSHRFSGSKSGNRAFLTITGLRAEDEADYYCCSFTSSGSRVFGGGTKVTVL
[1]
  Neut IC50 subtype A: > 10 µg/mL
[2]
  Neut IC50 subtype B: > 10 µg/mL

B9: ADI-14508 (antibody, V domains shown)
VH: QVQLVQSGTEVKKPGASVKVSCKGSGYMFANFGVSWVRQAPGRGLEWIGWISAYNGNTYYGREQGRFTMTTDTNTAYLELTSLRYDDTALYFCARDSGATAAGILWDYWGQGTLVTVSS
VL: EIVMTQSPLSLPVTLGQPASISCRSSQSLAYTDGSTYLNWFHQRPGQSPRRLIYKVFNRDSGVPDRFSGSGAGTDFTLTISRVEAEDVGVYYCMQATHWPRTFGQGTKVDIK
[1]
  Neut IC50 subtype A: 0.029 µg/mL
[2]
  Neut IC50 subtype B: 0.057 µg/mL

B10: ADI-14509 (antibody, V domains shown)
VH: QVQLVQSGSEVKKPGASVTLSCKASGYRFSNYGVSWVRQAPGQGLEWMGWISGYNGNIKYGNSLQGRVTLTTDTTTAYMEVTSLTSDDTAVYYCARDVPADGVHFMDVWGKGTTVTVSS
VL: B1 VL with M4L, N39T, N58H, S81A, Q95E, E110D
[1]
  Neut IC50 subtype A: 0.011 µg/mL
[2]
  Neut IC50 subtype B: 0.016 µg/mL

B11: ADI-14514 (antibody, V domains shown)
VH: B10 VH with L20V, G53A, I58T, T82R, A100G
VL: B1 VL with P18S, N39T, N58H, Q95E
[1]
  Neut IC50 subtype A: 0.046 µg/mL
[2]
  Neut IC50 subtype B: 0.074 µg/mL

B12: ADI-14515 (antibody, V domains shown)
VH: QVQLVQSGGGVVQPGSSLRLSCSASGFTFMTYGMHWARQAPGKGLEWVADISFDANKKYYRDSVKGRFTISRDNSKNTVYLQMNSLRPEDTAVYFCARNTIFGVVDYWGQGTLVTVSS
VL: EIVLTQSPATLSVSPGERATLSCRASQSVSANLAWYQHKPGQAPRLLIYGASTRASDIPARFSGSGSGTEFTLTISSLQSEDSAVYYCQQYNNWPPWTFGQGTKVEIK
[1]
  Neut IC50 subtype A: 0.051 µg/mL
[2]
  Neut IC50 subtype B: 0.049 µg/mL

B13: ADI-14516 (antibody, V domains shown)
VH: QVQLVQSGVEVKKPGASVKVSCKTSGYTFSNYGVTWVRQAPGQGLEYMGWISAYNGNTNYAQNVQGRLTMTTDTSTSTGYMELRRLTSDDTAVYFCARDKGVTVAGSLLDYWGQGTLVTVSS
VL: EIVMTQSPLSLPVTLGQPASISCRSSQSLEHSDGNTYLNWFQQRPGQSPRRLIYKVSNRDSGVPDRFSGSGSGTDFTLKINRVEAEDVGVYYCMESTHWPPYTFGQGTKVEIK
[1]
  Neut IC50 subtype A: 0.018 µg/mL
[2]
  Neut IC50 subtype B: 0.047 µg/mL

B14: ADI-14518 (antibody, V domains shown)
VH: QVQLVQSGPEVKKPGASVRVSCKTSGFTLSHYGVSWLRQAPGHGLEWLGWISAYNYNTQFGHRMEGRLTMTTDTSTAYMDLTSLTSDDTAIYYCARDSPSDTAAALLDFWGQGTLVTVSS
VL: DIVLTQSPLSLPVTLGQPASISCRSSQSLVYSDGNTYLSWFQQRPGQAPRRLIYKISNRDSGVPDRFSGSGSGTDFTLKISRVEAEDVGIYYCMQATHWPRLSFGGGTKVEIK
[1]
  Neut IC50 subtype A: 0.019 µg/mL
[2]
  Neut IC50 subtype B: 0.032 µg/mL

B15: ADI-14519 (antibody, V domains shown)
VH: EVQLVESGAEMKQPGASVKVSCEGFGNTLSERSIHWVRQAPGKGPEWMGDYDHEDKEAIYAPKFQGRLTISADMSTDIASLELNSLTSEDTAVYYCATVIAVGAYDIWGQGTLVTVSS
VL: EIVLTQSPSSLYASIGDRVTITCRTGQSISRYLNWYQQKPGKAPKLLIYAASTLQSGVPSRFSGSGAGTDFTLTIRGLLPEDFATYFCQQSYIIPYTFGQGTKVEIK
[1]
  Neut IC50 subtype A: 12.2 µg/mL
[2]
  Neut IC50 subtype B: 3.43 µg/mL

B16: ADI-14520 (antibody, V domains shown)
VH: QVQLQQWGAGLVKPSETLSLTCAVYGGSFSGYQWHWFRQPPGKGLEWIGEINHSEITHYNASLKSRVTLSIDTSKNQFSLNLTSVTAADTAVYYCARASSGSYNFEYWFDPWGQGTLVTVSS
VL: QSVLTQPPSVSVAPGKTAWLTCGGNNIGSKRVHWYRQKPGQAPVLVVYDDYDRPSGTPERVSGSNSGNTATLTISRVEDGDEGDYYCQVWDDPSDHAVFGGGTKLTVL
[1]
  Neut IC50 subtype A: 0.029 µg/mL
[2]
  Neut IC50 subtype B: 0.045 µg/mL

B17: ADI-14521 (antibody, V domains shown)
VH: QVQLVQSGTEVKKPGASVKVSCLTSGYTFTHFGISWVRQAPGQGLEWMGWFSAYNGNTKYAQKFQGRITLTIDTSTSIAYLELRSLRSDDTAVYYCARDPPSLTAAGTLDYWGQGTLVTVSS
VL: DIRLTQSPLSLPVTLGQPASISCSSNQSLVYSDGNTYLSWFQQRPGQSPRRLIYKVSDRDSGVPDRFSGSGSGTDFTLKISRVEAEDVGVYYCMQATDWPRTFGQGTKVEIK
[1]
  Neut IC50 subtype A: 0.083 µg/mL
[2]
  Neut IC50 subtype B: 0.123 µg/mL

B18: ADI-14448 (antibody, V domains shown)
VH: EVQLVESGGGLVKPGGSLRLSCAASGSSFRYSYMSWVRQAPGKGLQWVASISPSSTYTDYADSVKGRSTISRDHDKISLQVNSLRGDDTAVYYCVRHMNLVMGPFAFDIWGRGTMVTVSS
VL: QSVVTQPPSLSGAPGQRITISCTGSSSNIGAGYDVNWYQQLPGTAPKLLIYAKTNRPSGVPERFSGSESGTSASLAITGLQPEDEADYYCQSYDRIGMYVFGTGTKLTVL
[1]
  Neut IC50 subtype A: 0.043 µg/mL
[2]
  Neut IC50 subtype B: 0.066 µg/mL

B19: ADI-14451 (antibody, V domains shown)
VH: EVQLVESGAEVRKPGASVKVSCKASGYIFINYYIHWVRQAPGQGLEWMGWINPNSGASNHAQTFEGRITMTTDTSSNTAYMELSRLREDDTAVYYCARSQQLLVITDYSLDYWGLGTLVTVSS
VL: SSELTQDPAVSVALGQTVRITCHGDTLRNYYPAWYQQKPGQAPVLVVSDRNTRPSGIPDRFSVSTSGNTASLTITGAQAEDEGDYYCNCRDSSGHRLVFGGGTKLTVL
[1]
  Neut IC50 subtype A: 0.02 µg/mL
[2]
  Neut IC50 subtype B: 0.06 µg/mL

B20: ADI-14455 (antibody, V domains shown)
VH: QVQLVQSGAEVKKPGASVKVSCKASGYTFTSYGTSWVRQAPGQGLEWMGWISAYNGNTNYAQNLQGRVTMTTDTSTSTSYMELRSLRSDDTAVYYCARDVPVIAAGTMDYWGQGTLVTVSS
VL: B1 VL with E1D, S7T, H31Y, T34G, T75D, I90V, S97P, A100P, P101R
[1]
  Neut IC50 subtype A: 0.012 µg/mL
[2]
  Neut IC50 subtype B: 0.036 µg/mL

B21: ADI-14456 (antibody, V domains shown)
VH: QVQLVQSGAEVKKPGASVKVSCEASEYSFSGDYVHWVRQAPGQGLEWMGWIKAVNGGANYAQKFHGRVTMTTDSSKSTVYLEMSRLTPADTAIYFCAKDRAASVHVPAGAFDLWGQGTLVTVSS
VL: DIQMTQSPSSLSAYVGDRVSITCRASQSIDNFLNWYRQRPGKAPELLIYAASTLQGGVPSRFSGSGSGTHFTLTISSLQPEDFATYYCQQSFTIPSITFGQGTRLEIK
[1]
  Neut IC50 subtype A: > 10 µg/mL
[2]
  Neut IC50 subtype B: 0.372 µg/mL
